The source of these data is patent US20030215852A1 (Pfizer, published 2003).

In this assay the target is T1, Pablo (pro-apoptotic Bcl-XL binding protein) (human, UniProt Q92558 1-559).
T1 sequence: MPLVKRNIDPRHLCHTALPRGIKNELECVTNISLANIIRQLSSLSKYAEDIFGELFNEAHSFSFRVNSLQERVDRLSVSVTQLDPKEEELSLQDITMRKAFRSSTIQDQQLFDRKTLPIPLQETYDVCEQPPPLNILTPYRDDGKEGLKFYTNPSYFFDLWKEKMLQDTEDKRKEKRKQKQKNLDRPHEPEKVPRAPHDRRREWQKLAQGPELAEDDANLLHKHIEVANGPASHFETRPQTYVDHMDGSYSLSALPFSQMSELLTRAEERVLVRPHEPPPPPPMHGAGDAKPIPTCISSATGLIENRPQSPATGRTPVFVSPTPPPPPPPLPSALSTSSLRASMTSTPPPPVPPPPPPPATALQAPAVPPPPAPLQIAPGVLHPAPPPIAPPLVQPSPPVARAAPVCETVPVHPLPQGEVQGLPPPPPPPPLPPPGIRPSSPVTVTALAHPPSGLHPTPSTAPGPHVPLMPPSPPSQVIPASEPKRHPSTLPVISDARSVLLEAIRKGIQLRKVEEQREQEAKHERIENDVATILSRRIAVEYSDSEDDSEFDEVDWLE
Description: yeast two-hybrid assay.

B1: pancortin 1 (other)
chain: MITNWMSQTLPSLVGLNTTKLSAAGGGTLDRSTGVLPTNPEESWQVYSSAQDSEGRCICTVVAPQQTMCSRDARTKQLRQLLEKVQNMSQSIEVLDRRTQRDLQYVEKMENQMKGLESKFKQVEESHKQHLARQFKAIKAKMDELRPLIPVLEEYKADAKLVLQFKEEVQNLTSVLNELQEEIGAYDYDELQSRVSNLEERLRACMQKLACGKLTGISDPVTVKTSGSRFGSWMTDPLAPEGDNRVWYMDGYHNNRFVREYKSMVDFMNTDNFTSHRLPHPWSGTGQVVYNGSIYFNKFQSHIIIRFDLKTETILKTRSLDYAGYNNMYHYAWGGHSDIDLMVDESGLWAVYATNQNAGNIVVSRLDPVSLQTLQTWNTSYPKRSAGEAFIICGTLYVTNGYSGGTKVHYAYQTNASTYEYIDIPFQNKYSHISMLDYNPKDRALYAWNNGHQILYNVTLFHVIRSDEL
notes: Tested in a yeast two-hybrid assay; also called BMZ
Take B1: the binding result is “no binding”.
